B1: GFP-tagged PRR14 (1-212) wild-type fragment [human] / Heterochromatin Protein 1 gamma (HP1γ) [human (endogenous in Lenti-X 293T)] (parent complex)
chain 1: MDLPGDSSPPGQPRLCRQPLTRALWGARSPKRPRLQLPGAPSPLEKASRRVLAVVLEDVMAVHMVPVVPSKQTSIPQHHSYHQDPVHRQPPASPPRQAGWSSQARPPDPLCLCREPLSRIHRTSSTLRRRSRTTPGPEEGPSQKVDRAPQPTLVVMLEDIASPRPPAEGFIDETPNFIIPAQRAEPMRIVRQPTPPPGDLEPPFQPSALPAD
chain 2: not shown
B2: GFP-tagged PRR14 (1-212) wild-type fragment [human] / Heterochromatin Protein 1 beta (HP1β) [human (endogenous in Lenti-X 293T)] (parent complex)
chain 1: B1 chain 1
chain 2: not shown

Variants of: B1
Test: co-immunoprecipitation (anti-GFP IP) with Western blot, band intensity quantified; lysates of 293T cells expressing GFP-PRR14 (1-212) constructs; n = 3 independent immunoprecipitations; parent: 95; read off a plot

response | Variant
~17 | chain 1 V54E, chain 1 V55E
~6 | chain 1 V54E, chain 1 V55E, chain 1 V154E, chain 1 V155E
~95 | chain 1 V154E, chain 1 V155E

Variants of: B2
Test: co-immunoprecipitation (anti-GFP IP) with Western blot, band intensity quantified; lysates of 293T cells expressing GFP-PRR14 (1-212) constructs; n = 3 independent immunoprecipitations; parent: 91; read off a plot

response | Variant
~35 | chain 1 V54E, chain 1 V55E
~43 | chain 1 V54E, chain 1 V55E, chain 1 V154E, chain 1 V155E
~91 | chain 1 V154E, chain 1 V155E
